According to patent US20090130105A1 (Biogen, published 2009):

Key:
sIGF-1R(1-903) [1] = target: T1, sIGF-1R(1-903) (human, UniProt P08069 31-933); test: ITC, 25 °C, antibody into sIGF-1R(1-903)
T1 construct: also called soluble IGF-1R ectodomain
Experimental: Isothermal Titration Calorimetry (ITC). […] The reagents were co-dialyzed against PBS, pH 7.2. The protein solutions were adjusted to the concentrations listed above by dilution using PBS dialysate. […] The protein solutions were prepared as described above for the MAb binding experiments. All ITC experiments were performed on an ITC₂₀₀ microcalorimeter (MicroCal, LLC) at 25° C. […] IGF-1R bispecific antibodies. A four minute equilibration period was used between all injections with an initial delay of 60 seconds. Numerical integration of the data was performed using the ITC data analysis software supplied by MicroCal (Origin). ΔHA° (T) values were calculated based on the difference between the average heat liberated/absorbed during the binding phase of the injections and the average heat of dilution found once the receptor, IGF-1R, was saturated with MAb or BsAb.

sIGF-1R(1-903) [2] = target: T1, sIGF-1R(1-903); test: equilibrium solution-phase SPR, free sIGF-1R(1-903) read on C06 surface
[3] = target: T2, hIGF-1R-Fc mutant SD008 (S257F) (human, UniProt P08069 31-933); test: SPR: receptor-Fc captured on M13-C06 chip, then M13-C06 Fab; relative to wild type
T2 construct: not shown: human IgG1 Fc, C-terminal tag
T2 sequence (P08069 31-933 S287F): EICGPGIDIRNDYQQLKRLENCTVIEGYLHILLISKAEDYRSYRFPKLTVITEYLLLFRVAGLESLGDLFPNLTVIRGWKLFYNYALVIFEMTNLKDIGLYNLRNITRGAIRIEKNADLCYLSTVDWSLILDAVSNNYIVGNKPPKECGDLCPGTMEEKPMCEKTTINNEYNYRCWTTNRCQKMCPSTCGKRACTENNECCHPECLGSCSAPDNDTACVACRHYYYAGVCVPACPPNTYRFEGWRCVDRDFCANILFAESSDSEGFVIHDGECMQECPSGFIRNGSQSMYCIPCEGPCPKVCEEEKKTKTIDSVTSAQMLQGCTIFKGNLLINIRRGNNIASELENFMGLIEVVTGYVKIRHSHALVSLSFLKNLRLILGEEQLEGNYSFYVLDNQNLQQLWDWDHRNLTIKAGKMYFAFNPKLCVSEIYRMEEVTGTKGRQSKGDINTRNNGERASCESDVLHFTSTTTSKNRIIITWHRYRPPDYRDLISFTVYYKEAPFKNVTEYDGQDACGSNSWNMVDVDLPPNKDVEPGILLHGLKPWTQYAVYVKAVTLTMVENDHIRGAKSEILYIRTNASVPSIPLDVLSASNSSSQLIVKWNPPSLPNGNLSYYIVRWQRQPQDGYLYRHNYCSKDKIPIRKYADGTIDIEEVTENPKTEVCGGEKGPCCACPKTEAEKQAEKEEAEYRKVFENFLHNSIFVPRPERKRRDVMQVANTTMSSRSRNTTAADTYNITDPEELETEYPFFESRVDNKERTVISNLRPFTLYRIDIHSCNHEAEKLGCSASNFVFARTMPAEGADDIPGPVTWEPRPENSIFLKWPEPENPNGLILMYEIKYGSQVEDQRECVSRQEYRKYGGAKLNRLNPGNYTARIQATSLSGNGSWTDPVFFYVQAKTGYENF
Experimental: (§1) After, completion of the receptor-Fc loading step, flow rates were elevated to 5 μl/min. […] At the end of each sensorgram, the flow rate was elevated to 30 μl/min and the chip surface was regenerated by 2×10 μL injections of 0.1 M glycine, pH 2.

[4] = target: T3, hIGF-1R-Fc mutant SD017 (I650S) (human, UniProt P08069 31-933); test: as above
T3 construct: not shown: human IgG1 Fc, C-terminal tag
T3 sequence (P08069 31-933 I680S): as the sequence (P08069 31-933 S287F) above, with F257S, I650S counted along it
Experimental: as §1

[5] = target: T4, hIGF-1R-Fc mutant SD002 (M156A) (human, UniProt P08069 31-933); test: as above
T4 construct: not shown: human IgG1 Fc, C-terminal tag
T4 sequence (P08069 31-933 M186A): as the sequence (P08069 31-933 S287F) above, with M156A, F257S counted along it
Experimental: as §1

[6] = target: T5, hIGF-1R-Fc mutant SD011 (G285S, S286T) (human, UniProt P08069 31-933); test: as above
T5 construct: not shown: human IgG1 Fc, C-terminal tag
T5 sequence (P08069 31-933 G315S/S316T): as the sequence (P08069 31-933 S287F) above, with F257S, G285S, S286T counted along it
Experimental: as §1

[7] = target: T6, hIGF-1R-Fc mutant SD010 (G271D) (human, UniProt P08069 31-933); test: as above
T6 construct: not shown: human IgG1 Fc, C-terminal tag
T6 sequence (P08069 31-933 G301D): as the sequence (P08069 31-933 S287F) above, with F257S, G271D counted along it
Experimental: as §1

[8] = target: T7, hIGF-1R-Fc mutant SD012 (E303G) (human, UniProt P08069 31-933); test: as above
T7 construct: not shown: human IgG1 Fc, C-terminal tag
T7 sequence (P08069 31-933 E333G): as the sequence (P08069 31-933 S287F) above, with F257S, E303G counted along it
Experimental: as §1

[9] = target: T8, hIGF-1R-Fc mutant SD001 (Y28A) (human, UniProt P08069 31-933); test: as above
T8 construct: not shown: human IgG1 Fc, C-terminal tag
T8 sequence (P08069 31-933 Y58A): as the sequence (P08069 31-933 S287F) above, with Y28A, F257S counted along it
Experimental: as §1

[10] = target: T9, hIGF-1R-Fc mutant SD004 (S210H, A211Q) (human, UniProt P08069 31-933); test: as above
T9 construct: not shown: human IgG1 Fc, C-terminal tag
T9 sequence (P08069 31-933 S240H/A241Q): as the sequence (P08069 31-933 S287F) above, with S210H, A211Q, F257S counted along it
Experimental: as §1

[11] = target: T10, hIGF-1R-Fc mutant SD014 (K412A, A413Q) (human, UniProt P08069 31-933); test: as above
T10 construct: not shown: human IgG1 Fc, C-terminal tag
T10 sequence (P08069 31-933 K442A/A443Q): as the sequence (P08069 31-933 S287F) above, with F257S, K412A, A413Q counted along it
Experimental: as §1

[12] = target: T11, hIGF-1R-Fc mutant SD003 (T188F) (human, UniProt P08069 31-933); test: as above
T11 construct: not shown: human IgG1 Fc, C-terminal tag
T11 sequence (P08069 31-933 T218F): as the sequence (P08069 31-933 S287F) above, with T188F, F257S counted along it
Experimental: as §1

[13] = target: T12, hIGF-1R-Fc mutant SD009 (E264K) (human, UniProt P08069 31-933); test: as above
T12 construct: not shown: human IgG1 Fc, C-terminal tag
T12 sequence (P08069 31-933 E294K): as the sequence (P08069 31-933 S287F) above, with F257S, E264K counted along it
Experimental: as §1

[14] = target: T13, hIGF-1R-Fc mutant SD013 (D405K) (human, UniProt P08069 31-933); test: as above
T13 construct: not shown: human IgG1 Fc, C-terminal tag
T13 sequence (P08069 31-933 D435K): as the sequence (P08069 31-933 S287F) above, with F257S, D405K counted along it
Experimental: as §1

[15] = target: T14, hIGF-1R-Fc mutant SD005 (A217T) (human, UniProt P08069 31-933); test: as above
T14 construct: not shown: human IgG1 Fc, C-terminal tag
T14 sequence (P08069 31-933 A247T): as the sequence (P08069 31-933 S287F) above, with A217T, F257S counted along it
Experimental: as §1

[16] = target: T15, hIGF-1R-Fc mutant SD018 (E665A) (human, UniProt P08069 31-933); test: as above
T15 construct: not shown: human IgG1 Fc, C-terminal tag
T15 sequence (P08069 31-933 E695A): as the sequence (P08069 31-933 S287F) above, with F257S, E665A counted along it
Experimental: as §1

human IGF-1R(1-903)-Fc = target: T16, human IGF-1R(1-903)-Fc (human, UniProt P08069 31-933); test: as above
T16 construct: also called hIGF-1R-Fc; SDWT; not shown: human IgG1 Fc, C-terminal tag
T16 sequence (P08069 31-933): as the sequence (P08069 31-933 S287F) above, with F257S counted along it
Experimental: as §1

[17] = target: T17, hIGF-1R-Fc mutant SD019 (E739W, L741F) (human, UniProt P08069 31-933); test: as above
T17 construct: not shown: human IgG1 Fc, C-terminal tag
T17 sequence (P08069 31-933 E769W/L771F): as the sequence (P08069 31-933 S287F) above, with F257S, E739W, L741F counted along it
Experimental: as §1

[18] = target: T18, hIGF-1R-Fc mutant SD007 (N237G) (human, UniProt P08069 31-933); test: as above
T18 construct: not shown: human IgG1 Fc, C-terminal tag
T18 sequence (P08069 31-933 N267G): as the sequence (P08069 31-933 S287F) above, with N237G, F257S counted along it
Experimental: as §1

[19] = target: T19, hIGF-1R-Fc mutant SD016 (D531Q, V532N) (human, UniProt P08069 31-933); test: as above
T19 construct: not shown: human IgG1 Fc, C-terminal tag
T19 sequence (P08069 31-933 D561Q/V562N): as the sequence (P08069 31-933 S287F) above, with F257S, D531Q, V532N counted along it
Experimental: as §1

T1 sequence (P08069 31-933): as the sequence (P08069 31-933 S287F) above, with F257S counted along it

B1: M13-C06 antibody (antibody, V domains shown)
VH: EVQLLESGGGLVQPGGSLRLSCAASGFTFSIYRMQWVRQAPGKGLEWVSGISPSGGTTWYADSVKGRFTISRDNSKNTLYLQMNSLRAEDTAVYYCARWSGGSGYAFDIWGQGTMVTVSS
VL: DIQMTQSPLSLSASVGDRVTITCQASRDIRNYLNWYQQKPGKAPKLLIYDASSLQTGVPSRFGGSGSGTDFSFTIGSLQPEDIATYYCQQFDSLPHTFGQGTKLEIK
notes: Fully human full-length antibody (ATCC PTA-7444); also called M13.C06.G4.P.agly; M13-C06.G4P.agly
- ΔH° (sIGF-1R(1-903) [1]): -21.9 kcal/mol
- Kd (sIGF-1R(1-903) [2]): 0.1 nM
- n (#C06 specific binding sites) (sIGF-1R(1-903) [2]): 1

B2: M13-C06 Fab (Fab, V domains shown)
VH: EVQLLESGGGLVQPGGSLRLSCAASGFTFSIYRMQWVRQAPGKGLEWVSGISPSGGTTWYADSVKGRFTISRDNSKNTLYLQMNSLRAEDTAVYYCARWSGGSGYAFDIWGQGTMVTVSS
VL: DIQMTQSPLSLSASVGDRVTITCQASRDIRNYLNWYQQKPGKAPKLLIYDASSLQTGVPSRFGGSGSGTDFSFTIGSLQPEDIATYYCQQFDSLPHTFGQGTKLEIK
notes: Fab made by enzymatic digestion of the IgG
- Kd (sIGF-1R(1-903) [2]): 0.6 nM
- n (#C06 specific binding sites) (sIGF-1R(1-903) [2]): 2
- Biacore Relative RUmax [3]: 1.5
- Biacore Relative RUmax [4]: 2
- Biacore Relative RUmax [5]: 1.2
- Biacore Relative RUmax [6]: 1.8
- Biacore Relative RUmax [7]: 0.8
- Biacore Relative RUmax [8]: 0.3
- Biacore Relative RUmax [9]: 0.6
- Biacore Relative RUmax [10]: 0.8
- Biacore Relative RUmax [11]: 0.6
- Biacore Relative RUmax [12]: 1
- Biacore Relative RUmax [13]: 0.6
- Biacore Relative RUmax [14]: 0.7
- Biacore Relative RUmax [15]: 0.9
- Biacore Relative RUmax [16]: 1.7
- Biacore Relative RUmax (human IGF-1R(1-903)-Fc): 1
- Biacore Relative RUmax [17]: 1.9
- Biacore Relative RUmax [18]: 1.3
- Biacore Relative RUmax [19]: 2
